Assay results: US20260209350A1 (Alector, published 2026)
Like-named read-outs stand apart in the source and are kept apart here.

T1: mouse TREM2 on cells (mouse, UniProt Q99NH8 19-227)
T1 construct: whole, on cells; Used for the recombinant protein on BWZ/BW cells (with mouse DAP12) and for the native protein on mouse macrophages and dendritic cells; the cell type stands under assay; also called mTREM2; mTrem2
T1 sequence (looked up): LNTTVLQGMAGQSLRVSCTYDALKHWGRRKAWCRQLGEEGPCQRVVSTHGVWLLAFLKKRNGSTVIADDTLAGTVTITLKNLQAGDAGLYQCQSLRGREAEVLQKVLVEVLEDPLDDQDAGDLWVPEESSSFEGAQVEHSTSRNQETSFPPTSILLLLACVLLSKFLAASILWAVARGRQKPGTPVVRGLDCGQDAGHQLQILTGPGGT

T2: human TREM2 Fc fusion protein (human, UniProt Q9NZC2 19-174)
T2 construct: also called hTREM2-Fc; not shown: Fc part not specified
T2 sequence: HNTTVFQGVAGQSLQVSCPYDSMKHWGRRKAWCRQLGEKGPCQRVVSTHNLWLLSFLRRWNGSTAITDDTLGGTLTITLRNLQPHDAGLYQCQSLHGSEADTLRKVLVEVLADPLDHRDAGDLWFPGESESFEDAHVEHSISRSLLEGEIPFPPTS

T3: mouse TREM2 Fc fusion protein (mouse, UniProt Q99NH8 19-171)
T3 construct: also called mTREM2-Fc; not shown: Fc part not specified
T3 sequence (looked up): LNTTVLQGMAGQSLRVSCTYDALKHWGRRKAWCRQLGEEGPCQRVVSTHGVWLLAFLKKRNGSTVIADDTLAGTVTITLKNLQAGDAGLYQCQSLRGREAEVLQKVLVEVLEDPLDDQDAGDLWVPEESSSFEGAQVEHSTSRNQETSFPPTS

T4: human monomeric His tagged TREM2 protein (human, UniProt Q9NZC2 19-174)
T4 construct: also called hTREM2-HIS
T4 sequence: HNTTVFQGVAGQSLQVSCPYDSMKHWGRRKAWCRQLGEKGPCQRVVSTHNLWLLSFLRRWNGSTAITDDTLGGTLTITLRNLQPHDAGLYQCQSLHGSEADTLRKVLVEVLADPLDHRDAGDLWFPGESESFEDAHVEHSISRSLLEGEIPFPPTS

T5: human TREM2 on primary human cells (human, UniProt Q9NZC2 19-230)
T5 sequence: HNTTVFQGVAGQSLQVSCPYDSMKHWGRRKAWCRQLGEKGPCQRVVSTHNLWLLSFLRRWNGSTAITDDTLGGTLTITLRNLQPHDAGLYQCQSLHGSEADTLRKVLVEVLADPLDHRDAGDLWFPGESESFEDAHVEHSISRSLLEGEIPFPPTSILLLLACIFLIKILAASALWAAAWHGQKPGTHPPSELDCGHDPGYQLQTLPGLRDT


Legend:
mouse TREM2 on cells [1] = target: T1, mouse TREM2 on cells; assay: FACS, mTrem2 cells
[2] = target: T2, human TREM2 Fc fusion protein; assay: ForteBio or MSD-SET, avid
Protocol: (§1) The binding affinity of each anti-TREM2 antibody was determined by measuring their KD by ForteBio or MSD-SET. […] Briefly, ForteBio affinity measurements were performed by loading IgGs on-line onto AHQ sensors. Sensors were equilibrated off-line in assay buffer for 30 min and then monitored on-line for 60 seconds for baseline establishment. Sensors with loaded IgGs were exposed to 100 nM antigen for 5 minutes, then transferred to assay buffer for 5 min for off-rate measurement. Kinetics were analyzed using the 1:1 binding model.
(§2) Solution equilibrium titrations (SET) were performed in PBS+0.1% IgG-Free BSA (PBSF) with antigen held constant at 50 pM and incubated with 3- to 5-fold serial dilutions of antibody starting at 10 nM. Antibodies (20 nM in PBS) were coated onto standard bind MSD-ECL plates overnight at 4° C. or at room temperature for 30 min. Plates were then blocked for 30 min with shaking at 700 rpm, followed by three washes with wash buffer (PBSF+0.05% Tween 20). SET samples were applied and incubated on the plates for 150s with shaking at 700 rpm followed by one wash. Antigen captured on a plate was detected with 250 ng/mL sulfotag-labeled streptavidin in PBSF by incubation on the plate for 3 min. The plates were washed three times with wash buffer and then read on the MSD Sector Imager 2400 instrument using 1× Read Buffer T with surfactant. The percent free antigen was plotted as a function of titrated antibody in Prism and fit to a quadratic equation to extract the KD. To improve throughput, liquid handling robots were used throughout MSD-SET experiments, including SET sample preparation.

[3] = target: T3, mouse TREM2 Fc fusion protein; assay: ForteBio or MSD-SET, avid
Protocol: as §1, §2

[4] = target: T2, human TREM2 Fc fusion protein; assay: ForteBio or MSD-SET, avid; remark: listed apart in the source
[5] = target: T3, mouse TREM2 Fc fusion protein; assay: ForteBio or MSD-SET, avid; remark: listed apart in the source
[6] = target: T4, human monomeric His tagged TREM2 protein; assay: ForteBio or MSD-SET, monovalent
Protocol: as §1
Solution equilibrium titrations (SET) were performed in PBS+0.1% IgG-Free BSA (PBSF) with antigen held constant at 50 pM and incubated with 3- to 5-fold serial dilutions of antibody starting at 10 nM. Antibodies (20 nM in PBS) were coated onto standard bind MSD-ECL plates overnight at 4° C. or at room temperature for 30 min. Plates were then blocked for 30 min with shaking at 700 rpm, followed by three washes with wash buffer (PBSF+0.05% Tween 20). SET samples were applied and incubated on the plates for 150s with shaking at 700 rpm followed by one wash. Antigen captured on a plate was detected with 250 ng/mL sulfotag-labeled streptavidin in PBSF by incubation on the plate for 3 min. The plates were washed three times with wash buffer and then read on the MSD Sector Imager 2400 instrument using 1× Read Buffer T with surfactant. […]

[7] = target: T4, human monomeric His tagged TREM2 protein; assay: ForteBio or MSD-SET, monovalent; remark: listed apart in the source
mouse TREM2 on cells [8] = target: T1, mouse TREM2 on cells; assay: FACS, BWZ T2 cells
[9] = target: T5, human TREM2 on primary human cells; assay: cell-based or functional assay
[10] = target: T2, human TREM2 Fc fusion protein; assay: ForteBio or MSD-SET, avid; remark: listed apart in the source
Protocol: as §1
(§3) Solution equilibrium titrations (SET) were performed in PBS+0.1% IgG-Free BSA (PBSF) with antigen held constant at 50 pM and incubated with 3- to 5-fold serial dilutions of antibody starting at 10 nM. Antibodies (20 nM in PBS) were coated onto standard bind MSD-ECL plates overnight at 4° C. or at room temperature for 30 min. Plates were then blocked for 30 min with shaking at 700 rpm, followed by three washes with wash buffer (PBSF+0.05% Tween 20). SET samples were applied and incubated on the plates for 150s with shaking at 700 rpm followed by one wash. Antigen captured on a plate was detected with 250 ng/mL sulfotag-labeled streptavidin in PBSF by incubation on the plate for 3 min. The plates were washed three times with wash buffer and then read on the MSD Sector Imager 2400 instrument using 1×Read Buffer T with surfactant. The percent free antigen was plotted as a function of titrated antibody in Prism and fit to a quadratic equation to extract the KD. To improve throughput, liquid handling robots were used throughout MSD-SET experiments, including SET sample preparation.

[11] = target: T3, mouse TREM2 Fc fusion protein; assay: ForteBio or MSD-SET, avid; remark: listed apart in the source
Protocol: as §1, §3

mouse TREM2 on cells [12] = target: T1, mouse TREM2 on cells; assay: FACS, WT mouse macrophages
Protocol: (§4) Cells were harvested, plated at 10⁵/ml in a 96 well plate, washed, and incubated in 100 ul PBS containing 10-50 ug/ml Mab and Fc blocking reagent for 1 hour in ice. Cells were then washed twice and incubated in 100 ul PBS containing 5 ug/ml PE-conjugated secondary antibody for 30 minutes in ice. Cells were washed twice in cold PBS and acquired on a BD FACS Canto. Data analysis and calculation of MFI values was performed with FlowJo (TreeStar) software version 10.0.7.

mouse TREM2 on cells [13] = target: T1, mouse TREM2 on cells; assay: FACS, WT mouse dendritic cells
Protocol: as §4

[14] = target: T4, human monomeric His tagged TREM2 protein; assay: ForteBio or MSD-SET, monovalent; remark: listed apart in the source
Protocol: as §1, §3

[15] = target: T5, human TREM2 on primary human cells; assay: FACS, primary human dendritic cells

| MFI (mouse TREM2 on cells [1]) | Kd [2] | Kd [3] | Kd [4] | Kd [5] | Kd [6] | Kd [7] | MFI (mouse TREM2 on cells [8]) | Induction of CD86 & CD83 Human hDC plate (% CD83+CD86+ cells) [9] | Induction of CD86 & CD83 hDC solution (% CD83+CD86+ cells) [9] | Kd [10] | Kd [11] | MFI (mouse TREM2 on cells [12]) | MFI (mouse TREM2 on cells [13]) | Kd [14] | hDC % positive [15] | Binder |
| --- | --- | --- | --- | --- | --- | --- | --- | --- | --- | --- | --- | --- | --- | --- | --- | --- |
| 15600 MFI | 1.51 nM | 0.0896 nM | 1.51 nM | 0.0896 nM | 5.75 nM | 5.75 nM | – | – | – | – | – | – | – | – | – | Ab52 (antibody, human IgG1, V domains shown, human IgG1; also called antibody 52) VH: QVQLVQSGAEVKKPGASVKVSCKASGYTFTSYYIHWVRQAPGQGLEWMGIINPSGGSTSYAQKFQGRVTMTRDTSTSTVYMELSSLRSEDTAVYYCAREADDSSGYPLGLDVWGQGTMVTVSS VL: EIVMTQSPATLSVSPGERATLSCRASQSVSSNLAWYQQKPGQAPRLLIYGASTRATGIPARFSGSGSGTEFTLTISSLQSEDFAVYYCQQVNSLPPTFGGGTKVEIK |
| – | 0.344 nM | 0.227 nM | – | – | 1.14 nM | – | – | – | – | – | – | – | – | – | – | Ab21 (antibody, human IgG1, V domains shown, human IgG1; also called antibody 21) VH: EVQLVQSGAEVKKPGESLKISCKGSGYSFTTYWIGWVRQMPGKGLEWMGIIYPGDSDTRYSPSFQGQVTISADKSISTAYLQWSSLKASDTAMYYCARAGHYDGGHLGMDVWGQGTTVTVSS VL: EIVMTQSPGTLSLSPGERATLSCRASQSVSSSYLAWYQQKPGQAPRLLIYGASNRATGIPDRFSGSGSGTDFTLTISRLEPEDFAVYYCQQDDSAPYTFGGGTKVEIK |
| – | – | – | – | – | – | – | 12500 MFI | 74.5% | 1.2% | 0.306 nM | 0.34 nM | 110 MFI | 451 MFI | 1.01 nM | 76.9% | Ab22 (antibody, human IgG1, V domains shown, human IgG1) VH: EVQLVQSGAEVKKPGESLKISCKGSGYSFTTYWIGWVRQMPGKGLEWMGIIYPGDSDTRYSPSFQGQVTISADKSISTAYLQWSSLKASDTAMYYCARAGHYDGGHLGMDVWGQGTTVTVSS VL: EIVMTQSPGTLSLSPGERATLSCRASQSVSSSYLAWYQQKPGQAPRLLIYGASSRATGIPDRFSGSGSGTDFTLTISRLEPEDFAVYYCQQDDRSPYTFGGGTKVEIK |
| – | – | – | – | – | – | – | 16100 MFI | 74% | 1.7% | 0.546 nM | 1.56 nM | 165 MFI | 642 MFI | 5.01 nM | 76.9% | Ab65 (antibody, human IgG1, V domains shown, human IgG1) VH: EVQLVQSGAEVKKPGESLKISCKGSGYSFTSYWIGWVRQMPGKGLEWMGIIYPGDSDTRYSPSFQGQVTISADKSISTAYLQWSSLKASDTAMYYCARLGRKPSGSVAFDIWGQGTMVTVSS VL: EIVLTQSPATLSLSPGERATLSCRASQSVSSYLAWYQQKPGQAPRLLIYDASNRATGIPARFSGSGSGTDFTLTISSLEPEDFAVYYCQQDYSWPYTFGGGTKVEIK |
